{"source": "paper PMC6319605", "about": "(Nature microbiology, 2018)", "binders": {"B1": {"name": "Chlamydia trachomatis ChlaDUB1 (130-401) (enzyme)", "chain": "PVKTQEDLLPLVPEQVFVEMYEDMARRQTIEALVPAWDSDIIFKCLCYFHTLYPGLIPLETFPPATIFNFKQKIISILEDKKAVLRGEPIKGPLPICCSKENYRRHLQRTTLLPVFMWYHPTPKTLSDTMQTMKQLAIKGSVGASHWLLVIVDIQARRLVYFDSLYNYVMPPENMKKELQSFAQQLDQVYPAYDSKKFSVKIAAKEVIQRGSGSSCGAWCCQFLHWYLKDPLTDALNDLPVDSVERHENLASFVQACEAAVQDLPELSWPEA", "modifications": "covalently linked to one Ub molecule through the Ub-propargylamide probe (in the enzymatic S1 site)"}}, "target": "Ubiquitin (Ub-propargylamide activity-based probe) (UniProt P0CG48 1-76, C-terminal propargylamide (Ub-PA), covalently linked to ChlaDUB1)", "test": "crystal structure"}
{"binder": "B1", "values": [{"measurement": "binding result", "result": "binds"}]}
